What was measured:
[1] = target: PfTrx-L2-OVX313 (Pyrococcus furiosus | human papillomavirus type 16) (UniProt P03107); assay: SEC; Superdex 200 HR10/30, 25 mM Tris-HCl (pH 7.5), 150 mM NaCl, 0.7 ml/min; heparin-purified antigen; calibrated with molecular mass standards
[2] = target: PfTrx-L2-OVX313 (Pyrococcus furiosus | human papillomavirus type 16) (UniProt P03107); assay: non-reducing SDS-PAGE; heparin-purified antigen electrophoresed without β-mercaptoethanol (disulfide-linked oligomer kept); reduced sample beside it runs as the monomer
[3] = target: PfTrx-L2(8x)-OVX313 (Pyrococcus furiosus); assay: SEC; Superdex 200 HR10/30, 25 mM Tris-HCl (pH 7.5), 150 mM NaCl, 0.7 ml/min; heparin-purified antigen; calibrated with molecular mass standards
[4] = target: PfTrx-L2(8x)-OVX313 (Pyrococcus furiosus); assay: non-reducing SDS-PAGE; heparin-purified antigen electrophoresed without β-mercaptoethanol (disulfide-linked oligomer kept); reduced sample beside it runs as the monomer
[5] = target: L2-OVX313 (human papillomavirus type 16) (UniProt P03107); assay: SEC; Superdex 200 HR10/30, 25 mM Tris-HCl (pH 7.5), 150 mM NaCl, 0.7 ml/min; heparin-purified antigen; calibrated with molecular mass standards
[6] = target: L2-OVX313 (human papillomavirus type 16) (UniProt P03107); assay: non-reducing SDS-PAGE; heparin-purified antigen electrophoresed without β-mercaptoethanol (disulfide-linked oligomer kept); reduced sample beside it runs as the monomer

PfTrx-L2-OVX313 (from UniProt P03107 20-38; P03107 20-38; P03107 20-38)
stoichiometry N [1]: 7 | stoichiometry N [2]: 7

PfTrx-L2(8x)-OVX313
stoichiometry N [3]: 7 | stoichiometry N [4]: 7

L2-OVX313 (from UniProt P03107 20-38; P03107 20-38; P03107 20-38)
stoichiometry N [5]: 7 | stoichiometry N [6]: 7

Reference: paper PMC5740060
